# Key:
# [1] = target: SIV GAG 165-185 peptide on autologous macaque B-LCL (SIV; rhesus macaque (Macaca mulatta))
# [2] = target: SIV GAG 165-195 peptide (LP6) on autologous macaque B-LCL (SIV; rhesus macaque (Macaca mulatta))
# [3] = target: SIV GAG 176-195 peptide on autologous macaque B-LCL (SIV; rhesus macaque (Macaca mulatta))
# [4] = target: SIV NEF 201-225 peptide (LP4) on autologous macaque B-LCL (SIV; rhesus macaque (Macaca mulatta))
# [5] = target: SIV NEF 211-225 peptide on autologous macaque B-LCL (SIV; rhesus macaque (Macaca mulatta))
# [6] = target: SIV NEF 201-215 peptide on autologous macaque B-LCL (SIV; rhesus macaque (Macaca mulatta))
# [7] = target: SIV NEF 164-178 peptide on autologous macaque B-LCL (SIV; rhesus macaque (Macaca mulatta))
# [8] = target: SIV NEF 133-147 peptide on autologous macaque B-LCL (SIV; rhesus macaque (Macaca mulatta))
# [9] = target: SIV NEF 155-169 peptide on autologous macaque B-LCL (SIV; rhesus macaque (Macaca mulatta))
# [10] = target: SIV NEF 125-147 peptide (LP2) on autologous macaque B-LCL (SIV; rhesus macaque (Macaca mulatta))
# [11] = target: SIV NEF 155-178 peptide (LP3) on autologous macaque B-LCL (SIV; rhesus macaque (Macaca mulatta))
# [12] = target: SIV NEF 160-176 peptide on autologous macaque B-LCL (SIV; rhesus macaque (Macaca mulatta))
# [13] = target: SIV NEF 125-138 peptide on autologous macaque B-LCL (SIV; rhesus macaque (Macaca mulatta))
# [14] = target: SIV GAG 246-282 peptide (LP7) on autologous macaque B-LCL (SIV; rhesus macaque (Macaca mulatta))
# [15] = target: SIV NEF 155-178 peptide (LP3) on autologous macaque B-LCL (SIV; rhesus macaque (Macaca mulatta)); remark: listed apart in the source
substance,measurement,setting,value
"CTL line from PBMC of immunized macaque RS4, restimulated with the mixture of the 7 peptides (cells without a defined receptor)","specific 51Cr release (CRT), E/T 60:1 and 20:1 (percent specific chromium release)",[1],8
same,"specific 51Cr release (CRT), E/T 60:1 and 20:1 (percent specific chromium release)",[2],57
same,"specific 51Cr release (CRT), E/T 60:1 and 20:1 (percent specific chromium release)",[3],35
"CTL line from PBMC of immunized macaque RS23, restimulated with the mixture of the 7 peptides (cells without a defined receptor)","specific 51Cr release (CRT), E/T 70:1 (% specific lysis)",[4],42
same,"specific 51Cr release (CRT), E/T 60:1 and 20:1 (percent specific chromium release)",[5],0
same,"specific 51Cr release (CRT), E/T 60:1 and 20:1 (percent specific chromium release)",[6],18
"CTL line from PBMC of immunized macaque RS20, restimulated with the mixture of the 7 peptides (cells without a defined receptor)",specific 51Cr release (CRT) (percent specific chromium release),[7],49
same,"specific 51Cr release (CRT), E/T 60:1 and 20:1 (percent specific chromium release)",[8],4
same,specific 51Cr release (CRT) (percent specific chromium release),[9],14
same,"specific 51Cr release (CRT), E/T 60:1 and 20:1 (percent specific chromium release)",[10],72
same,specific 51Cr release (CRT) (percent specific chromium release),[11],87
same,specific 51Cr release (CRT) (percent specific chromium release),[12],6
same,"specific 51Cr release (CRT), E/T 60:1 and 20:1 (percent specific chromium release)",[13],85
"CTL line from PBMC of immunized macaque RS7, restimulated with the mixture of the 7 peptides (cells without a defined receptor)","specific 51Cr release (CRT), E/T 70:1 (% specific lysis)",[14],59
"CTL line from PBMC of immunized macaque RS21, restimulated with the mixture of the 7 peptides (cells without a defined receptor)","specific 51Cr release (CRT), E/T 70:1 (% specific lysis)",[4],35
"CTL line from PBMC of immunized macaque RS6, restimulated with the mixture of the 7 peptides (cells without a defined receptor)","specific 51Cr release (CRT), E/T 70:1 (% specific lysis)",[15],40
"CTL line from PBMC of immunized macaque RS17, restimulated with the mixture of the 7 peptides (cells without a defined receptor)","specific 51Cr release (CRT), E/T 70:1 (% specific lysis)",[15],44
same,"specific 51Cr release (CRT), E/T 60:1 and 20:1 (percent specific chromium release)",[7],46
same,"specific 51Cr release (CRT), E/T 60:1 and 20:1 (percent specific chromium release)",[9],0
same,"specific 51Cr release (CRT), E/T 60:1 and 20:1 (percent specific chromium release)",[12],0

# — patent US5993823
